System: HeLa cells
Assay type: cell-based, Human

B1: Holo-neocarzinostatin (protein, UniProt P0A3R9 35-147, looked up)
Neocarzinostatin: AAPTATVTPSSGLSDGTVVKVAGAGLQAGTAYDVGQCAWVDTGVLACNPADFSSVTADANGSASTSLTVRRSFEGFLFDGTRWGTVDCTTAACQVGLSDAAGNGPEGVAISFN
modifications: enediyne chromophore bound
B1 was tested, and the cell survival was at least 90%, the “incubation time within which full cytotoxic effect develops” value (37° C.) was at most 6 min and the IC50 (read-out: concentration of drug that kills 50% of the cell population) was 0.71 ± 0.05 nM.

Reference: patent publication US8313731B2 (priority 2002, dated 2012)
